Reference: patent publication US20220017616A1 (Amgen, published 2022)
Positions count from the first letter of the chain named. Where “and” joins values, the source holds several entries; their conditions need not be identical. Equal values may be shown once.

T1: human TIGIT (human, UniProt Q495A1 22-244)
T1 sequence: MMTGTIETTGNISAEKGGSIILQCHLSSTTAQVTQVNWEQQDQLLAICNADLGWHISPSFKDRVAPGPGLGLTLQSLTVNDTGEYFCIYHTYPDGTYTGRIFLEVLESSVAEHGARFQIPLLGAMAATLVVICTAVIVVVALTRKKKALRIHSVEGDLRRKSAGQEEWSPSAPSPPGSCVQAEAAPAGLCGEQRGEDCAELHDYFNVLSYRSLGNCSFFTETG

T2: huTIGIT (PL44403) (human, UniProt Q495A1 22-141)
T2 construct: Soluble protein; also called Human TIGIT (Octet analyte, mono-Fc tag)
T2 sequence: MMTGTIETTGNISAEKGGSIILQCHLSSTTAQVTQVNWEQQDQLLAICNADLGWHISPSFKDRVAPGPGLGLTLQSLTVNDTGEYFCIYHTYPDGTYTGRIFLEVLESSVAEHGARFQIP

T3: human CD112R expressed on CHO K1 cells (pMSCV_FLAG_human CD112R (N81D)(41-326)_IRES_EGFP) (human, UniProt Q6DKI7 41-326)
T3 construct: also called huCD112R; human CD112R expressed on CHO cells; not shown: FLAG tag named in the vector
T3 sequence: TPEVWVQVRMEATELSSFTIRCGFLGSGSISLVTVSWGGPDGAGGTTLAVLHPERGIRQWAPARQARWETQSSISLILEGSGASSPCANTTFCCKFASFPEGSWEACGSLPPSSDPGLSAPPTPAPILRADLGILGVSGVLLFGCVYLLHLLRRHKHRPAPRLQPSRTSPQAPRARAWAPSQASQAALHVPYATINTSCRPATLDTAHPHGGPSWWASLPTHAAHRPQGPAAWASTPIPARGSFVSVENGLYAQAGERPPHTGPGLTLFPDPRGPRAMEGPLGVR

T4: human CD155 on cells (human, UniProt P15151 21-417)
T4 construct: whole, on cells; also called huCD155
T4 sequence (looked up): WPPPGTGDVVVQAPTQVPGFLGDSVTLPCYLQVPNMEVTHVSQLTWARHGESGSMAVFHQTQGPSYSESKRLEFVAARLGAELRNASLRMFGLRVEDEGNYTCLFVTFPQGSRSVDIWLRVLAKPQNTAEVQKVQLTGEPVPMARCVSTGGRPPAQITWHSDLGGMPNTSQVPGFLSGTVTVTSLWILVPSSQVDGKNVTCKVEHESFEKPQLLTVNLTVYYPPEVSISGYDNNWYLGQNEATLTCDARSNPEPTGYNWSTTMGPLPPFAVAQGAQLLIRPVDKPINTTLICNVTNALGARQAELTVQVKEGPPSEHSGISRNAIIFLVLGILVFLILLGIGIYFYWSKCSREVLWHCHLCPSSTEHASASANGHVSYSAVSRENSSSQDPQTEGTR

B1: 11A3 (antibody, V domains shown)
VH: QVQLVQSGAEVKKPGASVKVSCKASGYTFTSYYIHWVRQAPGQGLEWMGIINPSGGRTSYAQMFQGRVTLTRDTSTNTVYMELSSLRSEDTAVFYCAKDREEQWPVGGFDYWGQGTLVTVSS
VL: DIQMTQSPSSLSASVGDRVTITCRASQNIRRYLNWYQQKPGKAPELLIYSASNLQNGVPSRFSGSGSGTDFTLTISSLQPEDFATYYCQQSYIIPPTFGQGTKVEIRR
notes: Fully human XenoMouse antibody, tested as hybridoma supernatant or purified mAb
B2: 43B7 (antibody, V domains shown)
VH: QVQLQESGPGLVKPSQTLSLTCTVSGGSISSGGYYWSWIRQHPGKGLEWIGYIYYRGGTYYNPSLRSRVTMSVDTSKNQFSLMLSSVTAADTAVYYCARTIFGVIILDNWGQGTPVTVSS
VL: DIQMTQSPSSLSASVGDRVTITCRSSQSISSYLNWYQQKPGRAPKLLIHAASSLQSGVPSRFSGSGSGTDFTLTISSLQPEDFASYCCQQSYTTPPTFGGGTKVEIKR
notes: as for B1
B3: 28B8 (antibody, V domains shown)
VH: QVQLQESGPGLVKPSETLFLTCTVSGGSVTNYYWSWIRQPAGKGLEWIGRIYTSGSTYYNPSLKSRVTMSLDTSKNQFSLRLSSVTAADTAVYYCAREGFTMVRGVMGAFDIWGQGTMVTVSS
VL: B1 VL with N28S, K39I, E45K, L46F, S50D, N53S, N56S, I93S, I94T, R107K
notes: as for B1
B4: human CD112-Fc (Fc fusion, UniProt Q92692 32-360, looked up, not shown: a dimerising Fc or GST)
chain: QDVRVQVLPEVRGQLGGTVELPCHLLPPVPGLYISLVTWQRPDAPANHQNVAAFHPKMGPSFPSPKPGSERLSFVSAKQSTGQDTEAELQDATLALHGLTVEDEGNYTCEFATFPKGSVRGMTWLRVIAKPKNQAEAQKVTFSQDPTTVALCISKEGRPPARISWLSSLDWEAKETQVSGTLAGTVTVTSRFTLVPSGRADGVTVTCKVEHESFEEPALIPVTLSVRYPPEVSISGYDDNWYLGRTDATLSCDVRSNPEPTGYDWSTTSGTFPTSAVAQGSQLVIHAVDSLFNTTFVCTVTNAVGMGRAEQVIFVRETPNTAGAGATGG
notes: treated as the same reagent; also called Human CD112 Ligand; CD112 ligand
B5: human CD226-Fc (Fc fusion, UniProt Q15762 19-247, looked up, not shown: a dimerising Fc or GST)
chain: EEVLWHTSVPFAENMSLECVYPSMGILTQVEWFKIGTQQDSIAIFSPTHGMVIRKPYAERVYFLNSTMASNNMTLFFRNASEDDVGYYSCSLYTYPQGTWQKVIQVVQSDSFEAAVPSNSHIVSEPGKNVTLTCQPQMTWPVQAVRWEKIQPRQIDLLTYCNLVHGRNFTSKFPRQIVSNCSHGRWSVIVIPDVTVSDSGLYRCYLQASAGENETFVMRLTVAEGKTDN
notes: also called huCD226; CD226-Fc (R&D, 666-DN)

Legend:
human TIGIT [1] = biological target: T1, human TIGIT; assay: cell-based or functional assay
huTIGIT (PL44403) = biological target: T2, huTIGIT (PL44403); assay: Octet, antibody on anti-huIgG Fc capture tips, huTIGIT as analyte
Protocol: (§1) In the case of cynoTIGIT, association was monitored for 5 min and dissociation for 5 min. […] The limit of detection of dissociation is 4e-5 based on a minimum of 5% dissociation over 20 minutes.

cynoTIGIT (PL40461) = biological target: T5, cynoTIGIT (PL40461) (cynomolgus monkey); assay: Octet, antibody on anti-huIgG Fc capture tips, cynoTIGIT as analyte
T5 construct: Soluble protein; also called Cyno TIGIT (Octet analyte)
T5 sequence (chain, as listed by the source limits assumed): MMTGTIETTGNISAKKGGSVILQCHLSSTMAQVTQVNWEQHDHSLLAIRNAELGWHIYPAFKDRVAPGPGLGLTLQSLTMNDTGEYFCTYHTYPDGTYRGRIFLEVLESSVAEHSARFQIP
Protocol: as §1

cynomolgus TIGIT [2] = biological target: T6, cynomolgus TIGIT (cynomolgus monkey); assay: flow cytometry on activated primary cyno PBMCs, fold over isotype control
T6 construct: Cell-surface form; also called cyno TIGIT
T6 sequence (chain, as listed by the source): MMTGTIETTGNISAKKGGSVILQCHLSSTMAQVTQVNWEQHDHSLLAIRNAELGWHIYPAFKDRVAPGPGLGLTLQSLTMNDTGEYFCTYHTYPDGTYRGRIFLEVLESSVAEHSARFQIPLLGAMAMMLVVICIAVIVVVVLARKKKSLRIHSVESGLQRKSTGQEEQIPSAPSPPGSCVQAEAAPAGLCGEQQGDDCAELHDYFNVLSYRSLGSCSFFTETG
Protocol: (§2) The binding of hybridoma supernatants to TIGIT expressed by primary human and cynomolgus monkey cells were tested by flow cytometry. For human primary cell binding assay, purified human T cells (Biological Specialty Corp.) were thawed and suspended at a concentration of 2.5×10⁶ cells/mL. […] After 72 hours, cells were removed, washed and suspended at a concentration of 0.5×10⁶ cells/mL with 10 ng/mL of IL-2 (Pepro Tech). Cells were then incubated for another 48 to 72 hours at 37° C./5% CO₂. For cynomolgus primary cell binding assay, cynomolgus PBMCs (SNBL) were thawed and suspended in a concentration between 4×10⁶ and 5×10⁶ cells/mL. […] After 72 hours, cells were removed, washed and suspended at a concentration of 0.5×10E6 cells/mL with 20 ng/mL of IL-2 (Pepro Tech). Cells were then incubated for another 48 to 72 hours at 37° C./5% CO₂. After the final incubation, cells were prepared for flow cytometry by incubation with normalized hybridoma supernatants, positive control antibodies and isotype control antibodies at 1 μg/mL final concentration. […] Cells were then run on BD FACSCanto II flow cytometer to detect anti-TIGIT antibody binding.

human TIGIT [3] = biological target: T1, human TIGIT; assay: flow cytometry, 1 µg/mL on activated primary human T cells, fold over isotype control
Protocol: as §2

human TIGIT [4] = biological target: T1, human TIGIT; assay: flow cytometry on CHO-S cells expressing human TIGIT, competitor CD112-Fc-Alexa 647, at 1 ug/mL
Protocol: (§3) TIGIT-binding hybridoma supernatants were then tested for their ability to block TIGIT from binding ligand. […] The 7-AAD cell viability stain was then added and the cells incubated for a further 15 minutes at 4° C., washed twice and resuspended in FACS buffer. Samples were analyzed using a BD Accuri™ Flow Cytometer and an Intellicyt HyperCyt autoSampler.

human TIGIT [5] = biological target: T1, human TIGIT; assay: flow cytometry on CHO-S cells expressing human TIGIT, competitor huCD155-Fc-Alexa 647, at 1.7 µg/mL
Protocol: as §3

human TIGIT [6] = biological target: T1, human TIGIT; assay: cell-based or functional assay; remark: listed apart in the source
cynomolgus TIGIT [7] = biological target: T6, cynomolgus TIGIT; assay: flow cytometry, 1 µg/mL on activated primary cyno PBMCs, fold over isotype control
Protocol: as §2

[8] = biological target: T3, human CD112R expressed on CHO K1 cells …; assay: flow cytometry on CHO K1 cells expressing human CD112R
human CD155 on cells = biological target: T4, human CD155 on cells; assay: flow cytometry, CD226-Fc at 10 ug/mL on mock-transfected 293T cells
Protocol: In the presence of tool TIGIT antibodies, TIGIT expressed by TIGIT-293 cells is bound by tool antibodies and is blocked from binding to CD155, thereby allowing CD226 to interact with CD155. […] Cells were washed 1× with FACS Buffer and resuspended in FACS buffer. Samples were analyzed using a BD Accuri™ Flow Cytometer and an Intellicyt HyperCyt autoSampler.

Binder | Potency [nM], Jurkat human TIGIT/IL-2-luciferase RGA, n = 1 (human TIGIT [1]) | Potency [nM], Jurkat human TIGIT/IL-2-luciferase RGA, n = 2 (human TIGIT [1]) | Kd (huTIGIT (PL44403)) | binding result (cynoTIGIT (PL40461)) | binding result (cynomolgus TIGIT [2]) | FACS Geomean Fold (human TIGIT [3]) | % inhibition (human TIGIT [4]) | % inhibition (human TIGIT [5]) | activity in the primary CD8 memory T-cell assay (IFN-γ release, CHO-K1-CD155+ cells) (human TIGIT [6]) | Kd (cynoTIGIT (PL40461)) | FACS Geomean Fold (cynomolgus TIGIT [7]) | EC50 [8] | binding result (human CD155 on cells)
B1 | 1.9 nM | 2.7 nM | < 0.1 nM | no binding | no binding (tested: 1 µg/mL) | 11.6 fold | 100% | 100% | – | – | – | – | –
B2 | 3.4 nM | 2.5 nM | < 0.1 nM | – | – | 13.7 fold | 100% | 100% | 90 pM | 13 nM | 4.7 fold | – | –
B3 | 4.3 nM | 2.1 nM | < 0.1 nM | no binding | no binding (tested: 1 µg/mL) | 14.4 fold | 97% | 100% | 160 pM | – | – | – | –
B4 | – | – | – | – | – | – | – | – | – | – | – | 1.61 µg/mL and 12.8 nM | –
B5 | – | – | – | – | – | – | – | – | – | – | – | – | binds
